Measured values from patent publication US12060598.

Target: T1, octanoyl-ACP (octanoyl-acyl carrier protein, E. coli K12 MG1655 ACP), P0A6A8
T1 chain: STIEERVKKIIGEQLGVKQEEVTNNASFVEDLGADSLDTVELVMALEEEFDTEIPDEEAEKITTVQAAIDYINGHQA

B1: CpFatB1.2-M4 (ΔA54, N28S, I65M) (protein)
chain: MGSSHHHHHHSSENLYFQGGGGYAAHRDYHRVRCAGKRWTMFDRKSKRPSMLMDSFGLERVVQDGLVFRQSFSIRSYEICADRTASMETVMNHVQETSLNQCKSIGLLDDGFGRSPEMCKRDLIWVVTRMKIMVNRYPTWGDTIEVSTWLSQSGKIGMGRDWLISDCNTGEILVRATSVYAMMNQKTRRFSKLPHEVRQEFAPHFLDSPPAIEDNDGKLQKFDVKTGDSIRKGLTPGWYDLDVNQHVSNVKYIGWILESMPTEVLETQELCSLTLEYRRECGRDSVLESVTSMDPSKVGDRFQYRHLLRLEDGADIMKGRTEWRPKNAGTNGAISTGKT
- Km (DTNB thioesterase assay): the Km remained relatively low
- Vmax (DTNB thioesterase assay), fold relative to CpFatB1.2: 15.7 fold increase in Vmax over CpFatB1.2
